Measurements published in article PMC9668737, “Herpes simplex virus 1 protein pUL21 alters ceramide metabolism by activating the interorganelle transport protein CERT” (The Journal of Biological Chemistry, 2022).
Values joined by “and” are separate entries in the source; they are usually repeats but may differ in a detail not shown here. Equal values may be shown once.

T1: pUL21-H6 (herpes simplex virus 1 (HSV-1), UniProt F8RG07 1-535)
T1 construct: HSV-1 pUL21, UniProt F8RG07; some paragraphs print H6-pUL21; also called H6-pUL21; WT pUL21; source: E. coli T7 Express lysY/Iq, purified (Ni-NTA, SEC); not shown: His6, C-terminal, kept
T1 sequence: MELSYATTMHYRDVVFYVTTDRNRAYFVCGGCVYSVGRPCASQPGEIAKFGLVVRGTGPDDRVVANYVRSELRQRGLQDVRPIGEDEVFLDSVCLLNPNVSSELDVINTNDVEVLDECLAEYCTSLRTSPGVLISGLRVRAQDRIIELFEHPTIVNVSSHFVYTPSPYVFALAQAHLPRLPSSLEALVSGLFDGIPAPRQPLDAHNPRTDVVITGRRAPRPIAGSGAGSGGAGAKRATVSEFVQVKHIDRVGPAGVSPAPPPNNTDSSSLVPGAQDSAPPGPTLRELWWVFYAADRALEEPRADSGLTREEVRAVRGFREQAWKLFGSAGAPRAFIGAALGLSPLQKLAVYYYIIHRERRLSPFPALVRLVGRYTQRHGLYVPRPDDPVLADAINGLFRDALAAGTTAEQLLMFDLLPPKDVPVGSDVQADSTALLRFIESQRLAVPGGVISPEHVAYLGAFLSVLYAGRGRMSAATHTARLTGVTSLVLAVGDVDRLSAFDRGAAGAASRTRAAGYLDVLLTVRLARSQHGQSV

T2: StrepII-CERTL^P (hyperphosphorylated human CERTL) (human, UniProt Q9Y5P4-1 1-624, hyperphosphorylated (CERTL^P); sites not given)
T2 construct: ceramide transport protein CERT, longer cytoplasmic isoform CERTL (with exon 11), human, UniProt Q9Y5P4-1; not shown: StrepII, N-terminal, kept
T2 sequence (looked up): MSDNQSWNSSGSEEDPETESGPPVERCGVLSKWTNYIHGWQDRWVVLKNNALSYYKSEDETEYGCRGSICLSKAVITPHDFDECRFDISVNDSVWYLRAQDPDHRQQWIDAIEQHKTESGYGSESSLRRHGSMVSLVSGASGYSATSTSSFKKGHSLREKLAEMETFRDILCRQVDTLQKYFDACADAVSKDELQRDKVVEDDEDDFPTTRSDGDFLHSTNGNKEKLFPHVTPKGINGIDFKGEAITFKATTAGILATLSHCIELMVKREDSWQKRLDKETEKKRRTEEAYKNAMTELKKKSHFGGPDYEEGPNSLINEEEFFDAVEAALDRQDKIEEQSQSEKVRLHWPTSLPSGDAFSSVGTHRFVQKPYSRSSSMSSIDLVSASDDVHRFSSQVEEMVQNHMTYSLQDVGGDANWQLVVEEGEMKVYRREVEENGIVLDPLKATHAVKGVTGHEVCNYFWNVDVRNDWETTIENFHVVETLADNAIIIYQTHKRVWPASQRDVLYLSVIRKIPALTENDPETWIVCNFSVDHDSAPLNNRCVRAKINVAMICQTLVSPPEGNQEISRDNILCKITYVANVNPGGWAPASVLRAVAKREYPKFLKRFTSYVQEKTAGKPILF

T3: StrepII-CERTL^S132A (constitutively hypophosphorylated human CERTL) (human, UniProt Q9Y5P4-1 1-624, S132A)
T3 construct: ceramide transport protein CERT, longer cytoplasmic isoform CERTL, human, UniProt Q9Y5P4-1, with S132A; source: Freestyle 293F cells, stably transfected, doxycycline-induced, purified (StrepTrap, SEC); not shown: StrepII, N-terminal, kept
T3 sequence (looked up): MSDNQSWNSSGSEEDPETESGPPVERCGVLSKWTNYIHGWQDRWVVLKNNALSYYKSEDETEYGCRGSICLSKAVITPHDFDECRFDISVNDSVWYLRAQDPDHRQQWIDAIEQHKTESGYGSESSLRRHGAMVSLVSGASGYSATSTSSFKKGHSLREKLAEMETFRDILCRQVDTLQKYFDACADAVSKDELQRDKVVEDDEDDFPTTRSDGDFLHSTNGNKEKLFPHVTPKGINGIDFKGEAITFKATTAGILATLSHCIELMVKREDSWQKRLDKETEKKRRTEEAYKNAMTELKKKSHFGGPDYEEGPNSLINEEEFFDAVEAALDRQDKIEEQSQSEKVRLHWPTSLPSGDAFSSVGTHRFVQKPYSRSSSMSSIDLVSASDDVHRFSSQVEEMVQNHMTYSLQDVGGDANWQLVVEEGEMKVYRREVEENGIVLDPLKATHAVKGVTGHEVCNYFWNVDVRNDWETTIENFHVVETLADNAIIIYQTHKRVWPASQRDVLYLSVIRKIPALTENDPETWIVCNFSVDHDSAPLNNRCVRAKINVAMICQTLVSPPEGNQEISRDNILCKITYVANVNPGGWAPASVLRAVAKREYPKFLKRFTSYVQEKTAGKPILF

T4: H6-miniCERTL (human, UniProt Q9Y5P4-1 20-624, residues 20–131 plus 351–624 (MR residues 132 to 350 excluded))
T4 construct: human CERTL, UniProt Q9Y5P4-1, residues 20-131 plus 351-624 (PH and STARTL domains joined by a retained 23 amino acid stretch of the middle region); Cloned into pOPTH; Monomer by SEC-MALS; source: E. coli T7 Express lysY/Iq, purified (Ni-NTA, SEC); not shown: MAH6, N-terminal, kept
T4 sequence (looked up): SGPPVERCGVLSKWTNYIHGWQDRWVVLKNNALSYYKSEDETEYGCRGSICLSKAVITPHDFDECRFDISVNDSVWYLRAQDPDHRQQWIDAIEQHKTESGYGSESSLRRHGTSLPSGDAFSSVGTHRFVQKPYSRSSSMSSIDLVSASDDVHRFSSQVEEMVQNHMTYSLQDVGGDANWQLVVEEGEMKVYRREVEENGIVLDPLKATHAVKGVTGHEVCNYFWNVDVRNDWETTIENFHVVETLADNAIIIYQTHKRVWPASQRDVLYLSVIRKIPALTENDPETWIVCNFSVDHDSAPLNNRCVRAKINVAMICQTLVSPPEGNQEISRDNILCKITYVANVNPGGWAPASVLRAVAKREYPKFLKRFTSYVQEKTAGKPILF


What was measured:
[1] = target: CERTL (CERT, long isoform) (UniProt Q9Y5P4); assay: SEC-MALS of self-association; settings: reference: wild-type CERTL, hyperphosphorylated (CERTLP); sites S132
[2] = target: the molecule itself; assay: SEC-MALS; Superose 6 increase 10/300 GL; 20 mM Tris pH 8.5, 500 mM NaCl, 0.5 mM TCEP; samples injected at 2 mg/ml
pUL21-H6 = target: T1, pUL21-H6; assay: ITC; 25 °C; 20 mM Tris pH 8.5, 500 mM NaCl, 0.5 mM TCEP; CERTL forms in the syringe titrated into pUL21 forms in the cell; one-site binding model; settings: both partners purified
[3] = target: T2, StrepII-CERTL^P (hyperphosphorylated …); assay: ITC; CERTL forms in the syringe titrated into pUL21 forms in the cell; 25 °C; 20 mM Tris pH 8.5, 500 mM NaCl, 0.5 mM TCEP; one-site binding model; single titrations; settings: both partners purified
[4] = target: T3, StrepII-CERTL^S132A (constitutively …); assay: as above; settings: both partners purified
H6-miniCERTL = target: T4, H6-miniCERTL; assay: ITC; 25 °C; 20 mM Tris pH 8.5, 500 mM NaCl, 0.5 mM TCEP; CERTL forms in the syringe titrated into pUL21 forms in the cell; one-site binding model; settings: both partners purified

Row | Molecule | stoichiometry N [2] | dH (pUL21-H6) | stoichiometry N (pUL21-H6) | other results
1 | CERTL (CERT, long isoform) (from UniProt Q9Y5P4) CERTL S132A (hypophosphorylated) | – | – | – | other: observed mass (expected trimer 215.7) [1]: same; reference 184.3
2 | StrepII-CERTL^P (hyperphosphorylated StrepII-tagged CERTL) (natural protein, human, UniProt Q9Y5P4-1 1-624, looked up, hyperphosphorylated (sites not given), human CERTL, UniProt Q9Y5P4-1, synthetic gene; Trimer by SEC-MALS (observed 184.3 kDa, expected 215.7 kDa); not shown: StrepII, N-terminal, kept) MSDNQSWNSSGSEEDPETESGPPVERCGVLSKWTNYIHGWQDRWVVLKNNALSYYKSEDETEYGCRGSICLSKAVITPHDFDECRFDISVNDSVWYLRAQDPDHRQQWIDAIEQHKTESGYGSESSLRRHGSMVSLVSGASGYSATSTSSFKKGHSLREKLAEMETFRDILCRQVDTLQKYFDACADAVSKDELQRDKVVEDDEDDFPTTRSDGDFLHSTNGNKEKLFPHVTPKGINGIDFKGEAITFKATTAGILATLSHCIELMVKREDSWQKRLDKETEKKRRTEEAYKNAMTELKKKSHFGGPDYEEGPNSLINEEEFFDAVEAALDRQDKIEEQSQSEKVRLHWPTSLPSGDAFSSVGTHRFVQKPYSRSSSMSSIDLVSASDDVHRFSSQVEEMVQNHMTYSLQDVGGDANWQLVVEEGEMKVYRREVEENGIVLDPLKATHAVKGVTGHEVCNYFWNVDVRNDWETTIENFHVVETLADNAIIIYQTHKRVWPASQRDVLYLSVIRKIPALTENDPETWIVCNFSVDHDSAPLNNRCVRAKINVAMICQTLVSPPEGNQEISRDNILCKITYVANVNPGGWAPASVLRAVAKREYPKFLKRFTSYVQEKTAGKPILF | ~3 | 3.89 kcal/mol | 0.74 | –
3 | StrepII-CERTL^S132A (natural protein, human, UniProt Q9Y5P4-1 1-624, looked up, hypophosphorylated, human CERTL, UniProt Q9Y5P4-1, synthetic gene, S132A; Trimer by SEC-MALS (observed 199.2 kDa); also called constitutively hypophosphorylated form of CERTL; source: Freestyle 293F, stably transfected, doxycycline-induced, purified (StrepTrap HP, Superose 6 SEC); not shown: StrepII, N-terminal, kept) MSDNQSWNSSGSEEDPETESGPPVERCGVLSKWTNYIHGWQDRWVVLKNNALSYYKSEDETEYGCRGSICLSKAVITPHDFDECRFDISVNDSVWYLRAQDPDHRQQWIDAIEQHKTESGYGSESSLRRHGAMVSLVSGASGYSATSTSSFKKGHSLREKLAEMETFRDILCRQVDTLQKYFDACADAVSKDELQRDKVVEDDEDDFPTTRSDGDFLHSTNGNKEKLFPHVTPKGINGIDFKGEAITFKATTAGILATLSHCIELMVKREDSWQKRLDKETEKKRRTEEAYKNAMTELKKKSHFGGPDYEEGPNSLINEEEFFDAVEAALDRQDKIEEQSQSEKVRLHWPTSLPSGDAFSSVGTHRFVQKPYSRSSSMSSIDLVSASDDVHRFSSQVEEMVQNHMTYSLQDVGGDANWQLVVEEGEMKVYRREVEENGIVLDPLKATHAVKGVTGHEVCNYFWNVDVRNDWETTIENFHVVETLADNAIIIYQTHKRVWPASQRDVLYLSVIRKIPALTENDPETWIVCNFSVDHDSAPLNNRCVRAKINVAMICQTLVSPPEGNQEISRDNILCKITYVANVNPGGWAPASVLRAVAKREYPKFLKRFTSYVQEKTAGKPILF | ~3 | 2.38 kcal/mol | 0.97 | –
4 | pUL21-H6 (HSV-1 pUL21) (natural protein, tegument protein pUL21 of herpes simplex virus 1, UniProt F8RG07; source: E. coli T7 Express lysY/Iq, purified (Ni-NTA, SEC); not shown: His6, C-terminal, kept) MELSYATTMHYRDVVFYVTTDRNRAYFVCGGCVYSVGRPCASQPGEIAKFGLVVRGTGPDDRVVANYVRSELRQRGLQDVRPIGEDEVFLDSVCLLNPNVSSELDVINTNDVEVLDECLAEYCTSLRTSPGVLISGLRVRAQDRIIELFEHPTIVNVSSHFVYTPSPYVFALAQAHLPRLPSSLEALVSGLFDGIPAPRQPLDAHNPRTDVVITGRRAPRPIAGSGAGSGGAGAKRATVSEFVQVKHIDRVGPAGVSPAPPPNNTDSSSLVPGAQDSAPPGPTLRELWWVFYAADRALEEPRADSGLTREEVRAVRGFREQAWKLFGSAGAPRAFIGAALGLSPLQKLAVYYYIIHRERRLSPFPALVRLVGRYTQRHGLYVPRPDDPVLADAINGLFRDALAAGTTAEQLLMFDLLPPKDVPVGSDVQADSTALLRFIESQRLAVPGGVISPEHVAYLGAFLSVLYAGRGRMSAATHTARLTGVTSLVLAVGDVDRLSAFDRGAAGAASRTRAAGYLDVLLTVRLARSQHGQSV | – | – | – | Kd [3]: 1080 nM and 554 nM and 684 nM; Kd [4]: 460 nM and 824 nM
5 | H6-pUL21C (domain or fragment, HSV-1 pUL21 C-terminal domain, amino acids 275-535, UniProt F8RG07; Cloned in pOPTH; Monomer by SEC-MALS and SAXS; also called C-terminal domain of pUL21; source: E. coli T7 Express lysY/Iq, purified (Ni-NTA, SEC); not shown: MAH6, N-terminal, kept) QDSAPPGPTLRELWWVFYAADRALEEPRADSGLTREEVRAVRGFREQAWKLFGSAGAPRAFIGAALGLSPLQKLAVYYYIIHRERRLSPFPALVRLVGRYTQRHGLYVPRPDDPVLADAINGLFRDALAAGTTAEQLLMFDLLPPKDVPVGSDVQADSTALLRFIESQRLAVPGGVISPEHVAYLGAFLSVLYAGRGRMSAATHTARLTGVTSLVLAVGDVDRLSAFDRGAAGAASRTRAAGYLDVLLTVRLARSQHGQSV | – | – | – | Kd (H6-miniCERTL): 4320 nM
